Tests used:
[1] = molecular target: CCAAT/enhancer binding protein β (C/EBPβ) (UniProt P17676)
[2] = molecular target: CCAAT/enhancer binding protein β (C/EBPβ) (UniProt P17676); remark: listed apart in the source

Sequence of UniProt P17676 (P17676 whole entry): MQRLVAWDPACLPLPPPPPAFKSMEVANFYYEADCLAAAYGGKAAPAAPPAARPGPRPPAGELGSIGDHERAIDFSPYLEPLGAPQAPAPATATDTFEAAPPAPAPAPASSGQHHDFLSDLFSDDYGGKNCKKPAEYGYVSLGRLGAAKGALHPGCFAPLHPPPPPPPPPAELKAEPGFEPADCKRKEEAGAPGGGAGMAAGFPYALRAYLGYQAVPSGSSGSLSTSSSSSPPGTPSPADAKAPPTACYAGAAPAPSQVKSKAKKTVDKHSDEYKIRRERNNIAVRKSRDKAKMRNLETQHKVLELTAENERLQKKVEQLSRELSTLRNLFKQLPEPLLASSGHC

B1: HPV8 E2 protein (human papillomavirus type 8 transcription factor E2) (natural protein)
chain: MENLSERFNVLQDQLMNIYEAAEQTLEAQIAHWLLLRKEAVLLYFARQKGITRIGYQPVPPLAVSEAKAKQAIGIMLQLQSLQKSEFADEPWTLVDTSIETYKNAPENHFKKGATPVEVIYDKQPDNANVYTMWKHIYYTDADDKWHKTTSGVNQTGIYYMQGSFRHYYVVFADDARRYSATGEWEVKINKDTVFAPVTSSTPPGSPPGQADTDTAAKTPTTSADSTSRQQRSPAKQPQQTETKGRRYGRRPSSRTRPQKEQRRSRSRHRTRSRSRSLSRVRAVGSTTVSRSRSSSLTKAVRPRSRSRSRGRATATSRRRAGRGSPRRRRSTSRSPSTNTFKRSQRGGGRRGRGRGSRGRRERSSSTSPTPTKRSRGESSRLRGVSPSEVGRSVQSVSAKHTGRLGRLLDEAIDPPVILVRGEANTLKCFRNRARVRYRGLFKYFSTTWSWVAGDSTERLGRSRMLILFTSAGQRKDFDETVKYPKGVDTSYGNLDSL
- endogenous S100A8 mRNA (qRT-PCR) in RTS3b cells co-transfected with HPV8 E2 and C/EBPβ: enhancement of C/EBPβ-mediated induction [1]: > 25 fold
- endogenous S100A8 protein level (Western blot quantification) in RTS3b cells co-transfected with HPV8 E2 and C/EBPβ [1]: 90 fold
- endogenous S100A9 mRNA (qRT-PCR) in RTS3b cells co-transfected with HPV8 E2 and C/EBPβ: enhancement of C/EBPβ-mediated induction [1]: 6 fold
- endogenous S100A9 protein level (Western blot quantification) in RTS3b cells co-transfected with HPV8 E2 and C/EBPβ [1]: 31 fold
- murine S100A8 promoter luciferase reporter activity in RTS3b cells co-transfected with 0.005 μg C/EBPβ and 0.005, 0.04 or 0.2 μg HPV8 E2 expression vector (control set at 1) [2]: 7 fold
